These results are taken from IntAct's records for PubMed 16902405.

The target in test [1] is rab6a_human RAB6A (UniProt P20340).
For test [2], the target named is rab1a_human RAB1A (UniProt P62820).
The target in test [3] is rab5a_human RAB5A (UniProt P20339).
The target is the same in test [4]. This is another data set of the same source.
Test [5] concerns the target rab6a_human RAB6A (UniProt P20340). This is another data set of the same source.
For test [6], the target named is rab1a_human RAB1A (UniProt P62820). The source holds these as a separate data set.
Test [7] addresses rab5a_human RAB5A (UniProt P20339). This is another data set of the same source.
Test [8] concerns the target rab1a_human RAB1A (UniProt P62820). The source holds these as a separate data set.
The target in test [9] is clh1_human CLTC (UniProt Q00610).
Sequence of clh1_human CLTC (Q00610 whole entry): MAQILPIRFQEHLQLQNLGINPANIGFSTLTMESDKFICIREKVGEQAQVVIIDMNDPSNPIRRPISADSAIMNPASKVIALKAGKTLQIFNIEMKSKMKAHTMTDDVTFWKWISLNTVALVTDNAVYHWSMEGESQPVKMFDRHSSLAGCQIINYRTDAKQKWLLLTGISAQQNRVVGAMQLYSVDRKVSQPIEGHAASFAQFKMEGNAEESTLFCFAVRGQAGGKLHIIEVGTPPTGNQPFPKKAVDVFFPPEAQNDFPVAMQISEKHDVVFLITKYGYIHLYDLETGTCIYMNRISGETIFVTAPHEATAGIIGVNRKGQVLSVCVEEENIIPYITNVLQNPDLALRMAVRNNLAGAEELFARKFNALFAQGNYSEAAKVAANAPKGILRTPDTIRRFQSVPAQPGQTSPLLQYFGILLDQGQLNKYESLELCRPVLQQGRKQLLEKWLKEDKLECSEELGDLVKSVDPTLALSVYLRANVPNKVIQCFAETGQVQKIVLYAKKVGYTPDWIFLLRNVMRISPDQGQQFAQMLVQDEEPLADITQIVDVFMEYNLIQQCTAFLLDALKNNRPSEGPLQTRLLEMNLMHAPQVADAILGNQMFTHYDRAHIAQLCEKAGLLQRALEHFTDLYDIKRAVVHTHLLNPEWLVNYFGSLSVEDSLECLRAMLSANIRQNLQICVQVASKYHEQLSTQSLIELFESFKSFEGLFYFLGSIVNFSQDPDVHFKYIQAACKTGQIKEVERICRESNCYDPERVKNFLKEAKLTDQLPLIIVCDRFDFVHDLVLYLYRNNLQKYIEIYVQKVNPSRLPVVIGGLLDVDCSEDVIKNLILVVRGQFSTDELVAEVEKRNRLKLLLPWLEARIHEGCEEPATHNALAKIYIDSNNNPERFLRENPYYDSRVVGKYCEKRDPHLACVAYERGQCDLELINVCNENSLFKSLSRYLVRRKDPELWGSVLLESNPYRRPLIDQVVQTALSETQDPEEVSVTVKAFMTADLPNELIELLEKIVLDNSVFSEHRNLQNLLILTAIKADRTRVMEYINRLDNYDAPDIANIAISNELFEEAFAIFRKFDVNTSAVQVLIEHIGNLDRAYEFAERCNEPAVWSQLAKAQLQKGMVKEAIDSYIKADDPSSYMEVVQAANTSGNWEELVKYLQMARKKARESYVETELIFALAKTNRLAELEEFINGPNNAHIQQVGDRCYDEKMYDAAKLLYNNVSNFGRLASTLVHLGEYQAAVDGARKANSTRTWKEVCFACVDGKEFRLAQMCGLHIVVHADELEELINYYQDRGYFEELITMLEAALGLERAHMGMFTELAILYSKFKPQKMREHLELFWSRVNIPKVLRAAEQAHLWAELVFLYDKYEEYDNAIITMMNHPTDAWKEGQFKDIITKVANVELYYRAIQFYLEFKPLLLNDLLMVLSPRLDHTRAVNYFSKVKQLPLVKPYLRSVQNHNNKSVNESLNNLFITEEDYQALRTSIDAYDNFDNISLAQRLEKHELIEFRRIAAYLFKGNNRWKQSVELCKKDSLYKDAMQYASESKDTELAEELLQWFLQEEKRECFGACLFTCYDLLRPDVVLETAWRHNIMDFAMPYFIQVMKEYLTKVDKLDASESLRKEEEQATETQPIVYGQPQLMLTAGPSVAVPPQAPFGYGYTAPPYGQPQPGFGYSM
Test [10] concerns the target rab6a_human RAB6A (UniProt P20340). The source holds these as a separate data set.
The target is the same in test [11]. The source holds these as a separate data set.
Test [12] has as its target clh1_human CLTC (UniProt Q00610). This is another data set of the same source.
Test [13] has as its target rab5a_human RAB5A (UniProt P20339). The source holds these as a separate data set.
The target in test [14] is rab1a_human RAB1A (UniProt P62820). The source holds these as a separate data set.
In test [15] the target is rab6a_human RAB6A (UniProt P20340). The source holds these as a separate data set.
For test [16] the target is unchanged. The source holds these as a separate data set.
The target in test [17] is clh1_human CLTC (UniProt Q00610). This is another data set of the same source.

Sequence of Inositol polyphosphate 5-phosphatase OCRL (Homo sapiens), Q01968 S568G (Q01968 whole entry S568G): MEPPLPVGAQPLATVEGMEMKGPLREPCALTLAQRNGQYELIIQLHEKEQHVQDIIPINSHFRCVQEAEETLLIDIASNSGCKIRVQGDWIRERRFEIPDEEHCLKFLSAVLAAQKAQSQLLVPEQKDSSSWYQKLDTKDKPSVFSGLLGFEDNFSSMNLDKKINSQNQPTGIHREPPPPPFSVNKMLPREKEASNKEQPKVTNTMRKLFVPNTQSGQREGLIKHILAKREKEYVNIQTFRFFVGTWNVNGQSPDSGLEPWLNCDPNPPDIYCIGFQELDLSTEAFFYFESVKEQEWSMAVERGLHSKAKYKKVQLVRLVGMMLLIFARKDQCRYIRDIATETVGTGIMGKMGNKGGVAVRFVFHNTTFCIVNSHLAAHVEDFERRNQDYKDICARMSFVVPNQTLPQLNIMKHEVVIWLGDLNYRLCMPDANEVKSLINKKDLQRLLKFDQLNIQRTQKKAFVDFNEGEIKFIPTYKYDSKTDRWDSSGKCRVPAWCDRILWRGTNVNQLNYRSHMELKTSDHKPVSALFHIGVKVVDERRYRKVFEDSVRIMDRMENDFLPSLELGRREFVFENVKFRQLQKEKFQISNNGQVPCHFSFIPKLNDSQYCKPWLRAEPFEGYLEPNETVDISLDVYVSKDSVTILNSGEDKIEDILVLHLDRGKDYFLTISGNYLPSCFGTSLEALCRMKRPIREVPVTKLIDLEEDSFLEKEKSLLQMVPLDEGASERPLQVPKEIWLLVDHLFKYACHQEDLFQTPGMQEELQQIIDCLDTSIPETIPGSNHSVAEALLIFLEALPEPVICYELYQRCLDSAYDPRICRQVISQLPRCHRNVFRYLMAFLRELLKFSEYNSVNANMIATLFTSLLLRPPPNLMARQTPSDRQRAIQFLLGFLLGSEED
Sequence of Inositol polyphosphate 5-phosphatase OCRL (Homo sapiens), Q01968 D555E (Q01968 whole entry D555E): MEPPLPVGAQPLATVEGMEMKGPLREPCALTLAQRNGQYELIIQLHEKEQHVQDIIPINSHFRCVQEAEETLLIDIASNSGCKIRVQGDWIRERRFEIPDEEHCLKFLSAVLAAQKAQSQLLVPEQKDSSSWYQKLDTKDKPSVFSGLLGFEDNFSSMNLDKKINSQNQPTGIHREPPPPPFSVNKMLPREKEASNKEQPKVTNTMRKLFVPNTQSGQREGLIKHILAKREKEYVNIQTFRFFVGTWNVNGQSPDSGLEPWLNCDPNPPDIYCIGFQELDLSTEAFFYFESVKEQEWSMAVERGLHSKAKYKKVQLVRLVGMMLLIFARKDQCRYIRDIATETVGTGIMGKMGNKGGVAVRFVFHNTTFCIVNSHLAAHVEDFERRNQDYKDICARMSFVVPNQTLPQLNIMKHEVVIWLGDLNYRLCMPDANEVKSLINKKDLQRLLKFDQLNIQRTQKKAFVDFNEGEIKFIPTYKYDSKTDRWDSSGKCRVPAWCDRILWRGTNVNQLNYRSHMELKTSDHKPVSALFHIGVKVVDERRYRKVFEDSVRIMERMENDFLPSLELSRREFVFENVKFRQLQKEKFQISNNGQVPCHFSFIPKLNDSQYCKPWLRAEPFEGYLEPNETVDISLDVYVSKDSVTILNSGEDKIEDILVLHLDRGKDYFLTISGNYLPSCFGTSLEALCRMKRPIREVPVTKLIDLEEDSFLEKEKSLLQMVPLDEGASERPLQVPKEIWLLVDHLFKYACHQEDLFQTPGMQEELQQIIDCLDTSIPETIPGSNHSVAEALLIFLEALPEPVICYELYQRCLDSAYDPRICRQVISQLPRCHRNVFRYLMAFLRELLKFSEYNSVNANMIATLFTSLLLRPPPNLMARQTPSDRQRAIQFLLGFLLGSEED
Sequence of rab5a_human RAB5A (P20339 whole entry): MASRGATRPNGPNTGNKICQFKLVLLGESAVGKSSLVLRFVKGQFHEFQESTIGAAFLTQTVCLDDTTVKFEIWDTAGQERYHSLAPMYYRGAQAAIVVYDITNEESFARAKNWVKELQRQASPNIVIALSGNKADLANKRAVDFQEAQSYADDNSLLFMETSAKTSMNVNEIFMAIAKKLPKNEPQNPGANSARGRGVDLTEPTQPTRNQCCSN
Sequence of rab1a_human RAB1A (P62820 whole entry): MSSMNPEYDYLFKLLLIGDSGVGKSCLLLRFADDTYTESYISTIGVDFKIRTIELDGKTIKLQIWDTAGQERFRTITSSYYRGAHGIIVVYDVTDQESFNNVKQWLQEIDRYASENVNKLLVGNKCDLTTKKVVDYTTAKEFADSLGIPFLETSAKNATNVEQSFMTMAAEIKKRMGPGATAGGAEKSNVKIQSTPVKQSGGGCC
Sequence of Inositol polyphosphate 5-phosphatase OCRL (Homo sapiens), Q01968 S564P (Q01968 whole entry S564P): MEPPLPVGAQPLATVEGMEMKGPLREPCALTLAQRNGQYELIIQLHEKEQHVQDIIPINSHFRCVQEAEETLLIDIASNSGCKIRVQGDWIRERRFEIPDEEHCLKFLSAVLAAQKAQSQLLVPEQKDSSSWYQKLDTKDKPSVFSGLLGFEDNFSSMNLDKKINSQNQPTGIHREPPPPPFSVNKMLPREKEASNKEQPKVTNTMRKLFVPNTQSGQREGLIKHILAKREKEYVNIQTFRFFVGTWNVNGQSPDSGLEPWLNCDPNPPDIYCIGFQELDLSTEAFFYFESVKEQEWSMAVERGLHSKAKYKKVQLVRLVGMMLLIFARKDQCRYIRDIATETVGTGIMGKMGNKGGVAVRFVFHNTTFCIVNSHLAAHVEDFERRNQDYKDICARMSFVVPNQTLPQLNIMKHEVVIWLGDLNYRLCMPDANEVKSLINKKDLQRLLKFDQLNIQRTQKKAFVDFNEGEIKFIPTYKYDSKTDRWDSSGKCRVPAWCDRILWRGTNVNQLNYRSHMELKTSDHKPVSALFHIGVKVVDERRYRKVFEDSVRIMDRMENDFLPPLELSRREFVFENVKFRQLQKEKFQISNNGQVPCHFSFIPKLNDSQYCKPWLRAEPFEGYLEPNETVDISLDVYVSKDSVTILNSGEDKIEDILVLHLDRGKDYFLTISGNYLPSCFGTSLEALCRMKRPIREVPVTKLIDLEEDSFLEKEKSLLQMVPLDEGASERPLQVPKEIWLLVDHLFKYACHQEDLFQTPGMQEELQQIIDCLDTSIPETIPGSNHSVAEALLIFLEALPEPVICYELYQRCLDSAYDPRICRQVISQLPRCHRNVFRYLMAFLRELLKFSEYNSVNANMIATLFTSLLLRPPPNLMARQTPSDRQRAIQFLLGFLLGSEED
Sequence of rab6a_human RAB6A (P20340 whole entry, looked up): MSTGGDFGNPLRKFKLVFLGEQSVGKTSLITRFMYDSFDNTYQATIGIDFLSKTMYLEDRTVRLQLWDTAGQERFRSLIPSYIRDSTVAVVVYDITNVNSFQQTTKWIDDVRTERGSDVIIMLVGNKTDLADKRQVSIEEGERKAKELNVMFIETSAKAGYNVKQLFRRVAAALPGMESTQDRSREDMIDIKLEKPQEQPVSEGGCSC

As for “Inositol polyphosphate 5-phosphatase OCRL (Homo sapiens), Q01968 G664D”, the “effect of a mutation on the interaction” value with rab6a_human RAB6A [1] is on record as “disrupting interaction”; in the test with rab1a_human RAB1A [2] it was “disrupting interaction”; with rab5a_human RAB5A [3], “decreasing interaction”.
Turning to “Inositol polyphosphate 5-phosphatase OCRL (Homo sapiens), Q01968 S568G”, the “effect of a mutation on the interaction” value was “increasing interaction” with rab5a_human RAB5A [4], “decreasing interaction” in the test with rab6a_human RAB6A [5] and “increasing interaction” in the test with rab1a_human RAB1A [6].
Take “Inositol polyphosphate 5-phosphatase OCRL (Homo sapiens), Q01968 D555E”: the “effect of a mutation on the interaction” value in the test with rab5a_human RAB5A [7] is “decreasing interaction”; with rab1a_human RAB1A [8], “disrupting interaction”; with clh1_human CLTC [9], “decreasing interaction”; in the test with rab6a_human RAB6A [10], “decreasing interaction”.
In the case of “Inositol polyphosphate 5-phosphatase OCRL (Homo sapiens), Q01968 P526H”, the “effect of a mutation on the interaction” value with rab6a_human RAB6A [11] and with clh1_human CLTC [12] was “increasing interaction” throughout.
Turning to “Inositol polyphosphate 5-phosphatase OCRL (Homo sapiens), Q01968 S564P”, the “effect of a mutation on the interaction” value with rab5a_human RAB5A [13] is given as “decreasing interaction”; in the test with rab1a_human RAB1A [14], “disrupting interaction”; with rab6a_human RAB6A [15] it was “disrupting interaction”.
Turning to “Inositol polyphosphate 5-phosphatase OCRL (Homo sapiens), Q01968 N606K”, the “effect of a mutation on the interaction” value with rab6a_human RAB6A [16] and with clh1_human CLTC [17] was “increasing interaction” each time.
